In assay [1] the target is T1, Human IL13Rα2 (human, UniProt Q14627 27-343, limits assumed).
T1 construct: also called human recombinant IL13Rα2; Human IL13Ra2
T1 sequence (looked up): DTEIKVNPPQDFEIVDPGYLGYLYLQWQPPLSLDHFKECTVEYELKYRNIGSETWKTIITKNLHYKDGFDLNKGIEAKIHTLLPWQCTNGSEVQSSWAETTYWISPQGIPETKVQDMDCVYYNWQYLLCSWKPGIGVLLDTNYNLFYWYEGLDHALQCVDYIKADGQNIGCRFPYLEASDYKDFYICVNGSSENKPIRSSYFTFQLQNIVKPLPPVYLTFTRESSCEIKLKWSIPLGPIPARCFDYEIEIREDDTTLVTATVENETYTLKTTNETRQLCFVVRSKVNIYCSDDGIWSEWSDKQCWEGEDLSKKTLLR
The assay can be described thus: SPR Biacore T200, 25 C, antibody captured on Protein A chip, IL13Ra2 analyte 0.625-80 nM.

Assay [2] deals with T1, Human IL13Rα2. The assay can be described thus: plate ELISA on human IL13Rα2, OD405, N=4 [continued) B].
In assay [3] the target is T1, Human IL13Rα2. The assay can be described thus: SPR Biacore 8K affinity ranking, antibody supernatant Fc-captured, 100 nM IL13Rα2 analyte. (Surface plasmon resonance follows binding to a sensor surface in real time, without labels.)
The target of assay [4] is T1, Human IL13Rα2. The assay can be described thus: SPR Biacore T200, purified IgG Fc-captured, IL13Rα2 as analyte.
Assay [5] has as its target T1, Human IL13Rα2. The assay is described as follows: plate ELISA on human recombinant IL13Rα2, OD405, N=4. (An ELISA detects its analyte on a solid surface through an enzyme-linked reagent.)
Assay [6] has as its target T1, Human IL13Rα2. The assay can be described thus: plate ELISA on human recombinant IL13Rα2, OD405, N=3.
Assay [7] has as its target T1, Human IL13Rα2. The assay can be described thus: SPR Biacore T200, antibody captured, IL13Rα2 analyte 0.9375-60 nM.

Substitutions are numbered along the chain they refer to. Names may count otherwise.

B1: Ab Vh1G56A-VL1W100F (antibody, human IgG1, kappa, V domains shown)
VH: QVQLVQSGAEVKKPGSSVKVSCKASGYTFSNYLMNWVRQAPGQGLEWMGRIDPYDADIDYNQNFKDRVTITADKSTSTAYMELSSLRSEDTAVYYCARGYGTAYGVDYWGQGTLVTVSS
VL: DIVMTQSPDSLAVSLGERATINCRASESVDNYGISFMNWYQQKPGQPPKLLIYAASRQGSGVPDRFSGSGSGTDFTLTISSLQAEDVAVYYCQQSKEVPFTFGGGTKLEIKR
notes: also called double mutant
In the case of B1, in assay [1], the Kd (commonly the equilibrium constant for the complex coming apart) was 0.277 nM; the koff (in general, the rate constant with which the complex falls apart) is 0.000284 s⁻¹; the kon (in general, the rate constant with which the complex forms) amounted to 1.02e+06 M⁻¹ s⁻¹. For the same molecule, the EC50 (read off the curve) (usually the concentration giving half of the maximal effect) in assay [2] was ~0.03 µg/mL.

B2: Humanized antibody VH2 + VL2 (antibody, human IgG1, kappa, V domains shown)
VH: B1 VH with S16A, G44R, A56G, A72R, K74T, T76A
VL: DIQMTQSPSSLSASVGDRVTITCRASESVDNYGISFMNWYQQKPGKAPKLLIYAASRQGSGVPSRFSGSGSGTDFTLTISSLQPEDFATYYCQQSKEVPWTFGGGTKLEIKR
B2: in assay [3], binding was put at a Kd of 0.857 nM, the koff stood at 0.000555 s⁻¹ and the kon came out at 648000 M⁻¹ s⁻¹.

B3: Humanized antibody VH2 + VL3 (antibody, human IgG1, kappa, V domains shown)
VH: B1 VH with S16A, G44R, A56G, A72R, K74T, T76A
VL: EIVLTQSPATLSLSPGERATLSCRASESVDNYGISFMNWYQQKPGQAPRLLIYAASRQGSGIPARFSGSGSGTDFTLTISSLEPEDFAVYYCQQSKEVPWTFGGGTKLEIKR
notes: also called U3621EI120 VH2+VL3
For B3, in assay [4], binding was characterised by a dissociation constant (Kd) of 0.513 nM, the koff came to 0.00042 s⁻¹ and the kon was 820000 M⁻¹ s⁻¹. Further, in assay [3], the Kd came to 1.17 nM, the koff was 0.000761 s⁻¹ and the kon was 649000 M⁻¹ s⁻¹.

B4: Humanized antibody VH4 + VL1 (antibody, human IgG1, kappa, V domains shown)
VH: B1 VH with S16A, P41T, A56G, A72R, D73N, K74T, T76I
VL: B1 VL with F100W
In assay [3], B4 yielded a Kd of 0.727 nM, a koff of 0.000424 s⁻¹ and a kon of 583000 M⁻¹ s⁻¹.

B5: Humanized antibody VH4 + VL2 (antibody, human IgG1, kappa, V domains shown)
VH: B1 VH with S16A, P41T, A56G, A72R, D73N, K74T, T76I
VL: B2 VL
For B5, in assay [3], the Kd is 0.597 nM, the koff amounted to 0.000445 s⁻¹ and the kon was found to be 746000 M⁻¹ s⁻¹.

B6: Humanized antibody VH3 + VL1 (antibody, human IgG1, kappa, V domains shown)
VH: B1 VH with S16A, A56G, I70M, A72R, K74T, A79V
VL: B1 VL with F100W
Turning to B6, in assay [3], the Kd was determined as 0.661 nM, the koff turned out to be 0.000595 s⁻¹ and the kon turned out to be 901000 M⁻¹ s⁻¹.

B7: Humanized antibody VH4 + VL4 (antibody, human IgG1, kappa, V domains shown)
VH: B1 VH with S16A, P41T, A56G, A72R, D73N, K74T, T76I
VL: B3 VL with L4M, L13V, D74E, E83Q, P84S
In assay [3], B7 displayed a Kd of 0.594 nM, a koff of 0.000501 s⁻¹ and a kon of 844000 M⁻¹ s⁻¹.

B8: Humanized antibody VH3 + VL2 (antibody, human IgG1, kappa, V domains shown)
VH: B1 VH with S16A, A56G, I70M, A72R, K74T, A79V
VL: B2 VL
In assay [3], B8 yielded a Kd of 0.698 nM, a koff of 0.000595 s⁻¹ and a kon of 852000 M⁻¹ s⁻¹.

B9: Humanized antibody VH4 + VL3 (antibody, human IgG1, kappa, V domains shown)
VH: B1 VH with S16A, P41T, A56G, A72R, D73N, K74T, T76I
VL: B3 VL
In assay [3], B9 yielded an equilibrium dissociation constant (Kd) of 0.877 nM, a koff of 0.000675 s⁻¹ and a kon of 769000 M⁻¹ s⁻¹.

B10: Humanized antibody VH1 + VL4 (antibody, human IgG1, kappa, V domains shown)
VH: B1 VH with A56G
VL: B3 VL with L4M, L13V, D74E, E83Q, P84S
notes: also called U3621EI120 VH1+VL4
As for B10, in assay [4], binding was put at a Kd of 0.297 nM, the koff is 0.00022 s⁻¹ and the kon turned out to be 741000 M⁻¹ s⁻¹. Moreover, in assay [3], the Kd was 0.599 nM, the koff came to 0.000269 s⁻¹ and the kon worked out at 449000 M⁻¹ s⁻¹.

B11: Humanized antibody VH1 M34A-VL1 (antibody, human IgG1, kappa, V domains shown)
VH: B1 VH with M34A, A56G
VL: B1 VL with F100W
notes: Antibody purified on protein A
B11: in assay [5], the “EC50 (read off the curve)” value was ~0.03 µg/mL.

B12: Humanized antibody VH2 + VL1 (antibody, human IgG1, kappa, V domains shown)
VH: B1 VH with S16A, G44R, A56G, A72R, K74T, T76A
VL: B1 VL with F100W
Regarding B12, in assay [3], binding was put at a Kd of 0.704 nM, the koff stood at 0.000417 s⁻¹ and the kon stood at 593000 M⁻¹ s⁻¹.

B13: Humanized antibody VH2 + VL4 (antibody, human IgG1, kappa, V domains shown)
VH: B1 VH with S16A, G44R, A56G, A72R, K74T, T76A
VL: B3 VL with L4M, L13V, D74E, E83Q, P84S
As to B13, in assay [3], binding was characterised by a dissociation constant (Kd) of 1.35 nM, the koff is 0.000748 s⁻¹ and the kon was determined as 555000 M⁻¹ s⁻¹.

B14: Humanized antibody VH3 + VL4 (antibody, human IgG1, kappa, V domains shown)
VH: B1 VH with S16A, A56G, I70M, A72R, K74T, A79V
VL: B3 VL with L4M, L13V, D74E, E83Q, P84S
In assay [3], B14 showed a Kd of 0.984 nM, a koff of 0.000615 s⁻¹ and a kon of 625000 M⁻¹ s⁻¹.

B15: Humanized antibody VH1 + VL3 (antibody, human IgG1, kappa, V domains shown)
VH: B1 VH with A56G
VL: B3 VL
In the case of B15, in assay [3], the Kd is 0.9 nM, the koff was 0.000463 s⁻¹ and the kon was determined as 514000 M⁻¹ s⁻¹.

B16: Humanized antibody VH1(G56A) + VL1 (antibody, human IgG1, kappa, V domains shown)
VH: B1 VH
VL: B1 VL with F100W
notes: also called VHG56A-VL1; Humanized VHG56A-VL1
For the molecule B16, the “EC50 (read off the curve)” value in assay [6] is ~0.02 µg/mL. In assay [7], this molecule came in with a Kd of 0.215 nM, a koff of 0.000156 s⁻¹ and a kon of 727000 M⁻¹ s⁻¹.

B17: Humanized antibody VH3 + VL3 (antibody, human IgG1, kappa, V domains shown)
VH: B1 VH with S16A, A56G, I70M, A72R, K74T, A79V
VL: B3 VL
Consider B17, for which, in assay [3], the affinity, expressed as Kd, was 1.13 nM; the koff came to 0.000702 s⁻¹; the kon is 620000 M⁻¹ s⁻¹.

B18: Humanized antibody VH1-VL1 M37A (antibody, human IgG1, kappa, V domains shown)
VH: B1 VH with A56G
VL: B1 VL with M37A, F100W
B18: in assay [5], the binding result was “binds”.

B19: Humanized antibody VH1 D52E-VL1 (antibody, human IgG1, kappa, V domains shown)
VH: B1 VH with D52E, A56G
VL: B1 VL with F100W
notes: also called VH1 MD52E-VL1
As to B19, the “EC50 (read off the curve)” value in assay [5] is ~0.04 µg/mL.

B20: Humanized antibody VH1-VL1 Q58E (antibody, human IgG1, kappa, V domains shown)
VH: B1 VH with A56G
VL: B1 VL with Q58E, F100W
In the case of B20, in assay [5], the binding result is given as “binds”.

B21: Humanized antibody VH1-VL1 Q94E (antibody, human IgG1, kappa, V domains shown)
VH: B1 VH with A56G
VL: B1 VL with Q94E, F100W
In the case of B21, the “EC50 (read off the curve)” value in assay [5] is ~0.01 µg/mL.

B22: Humanized antibody VH1 + VL2 (antibody, human IgG1, kappa, V domains shown)
VH: B1 VH with A56G
VL: B2 VL
In the case of B22, in assay [3], binding was put at a Kd of 0.758 nM, the koff came to 0.000312 s⁻¹ and the kon was determined as 412000 M⁻¹ s⁻¹.
